The chains are these.
B1: annexin V (other)
chain: AQVLRGTVTDFPGFDERADAETLRKAMKGLGTDEESILTLLTSRSNAQRQEISAAFKTLFGRDLLDDLKSELTGKFEKLIVALMKPSRLYDAYELKHALKGAGTNEKVLTEIIASRTPEELRAIKQVYEEEYGSSLEDDVVGDTSGYYQRMLVVLLQANRDPDAGIDEAQVEQDAQALFQAGELKWGTDEEKFITIFGTRSVSHLRKVFDKYMTISGFQIEETIDRETSGNLEQLLLAVVKSIRSIPAYLAETLYYAMKGAGTDDHTLIRVMVSRSEIDLFNIRKEFRKNFATSLYSMIKGDTSGDYKKALLLLCGEDD
notes: 10 µg annexin V was run on SDS-PAGE, blotted to nitrocellulose and used as the immobilized partner in the overlay assay; also called immobilized annexin V
B2: myelin basic protein (MBP)-delta V1 PKC fusion protein (other)
chain: MAPFLRISFNSYELGSLQAEDDASQPFCAVKMKEALTTDRGKTLVQKKPTMYPEWKSTFDAHIYEGRVIQIVLMRAAEDPMSEVTVGVSVLAERCKKNNGKAEFWLDLQPQAKVLMCVQYFLEDGDCKQSMRSEEEAMFPTMNRRGAIKQAKIHYIKNHE
notes: Used as crude bacterial cell lysate (30 µg) containing the fusion protein; also called MBP-δV1; δ-V1; not shown: fusion tag printed as 'myelin basic protein (MBP)'
B3: ε-V1 (V1 region of ε-PKC) (other)
chain: MVVFNGLLKIKICEAVSLKPTAWSLRHAVGPRPQTFLLDPYIALNVDDSRIGQTATKQKTNSPAWHDEFVTDVCNGRKIELAVFHDAPIGYDDFVANCTIQFEELLQNGSRHFEDWIDLEPEGKVYVIIDLSGSSGEAPKDNEE
B4: glutathione-S-transferase-delta V5 PKC fusion protein (other)
chain: PKVKSPSDYSNFDPEFLNEKPQLSFSDKNLIDSMDQEAFHGFSFVNPKFEQFLDI
notes: Used as crude bacterial cell lysate (30 µg) containing the fusion protein; also called GST-δV5; δ-V5; not shown: glutathione-S-transferase (GST) fusion tag

In one test the target is T1, full-length δ-PKC (Mus musculus (Mouse), UniProt P28867 1-674).
T1 construct: Full-length δ-PKC in the overlay assay; also called δ-protein kinase C; delta PKC
Kind of test: overlay assay on blotted annexin V (figure legend, FIGS. 1A-D).

The target of test [1] is B1. The description is as above.
Method: (§1) The strips were incubated with blocking buffer (50 mM Tris pH 7.5, 200 mM NaCl, 3% bovine serum albumin, 0.1% PEG20). […] The strips where then washed with wash buffer (50 mM Tris pH 7.5, 200 mM NaCl, 0.1% PEG20, 12 mM β-mercaptoethanol), and then incubated with fixative (0.2% formaldehyde in PBS) and neutralizing solution (0.2M glycine in PBS) at room temperature 20 min each. After washing with buffer, the strips were probed with antibodies according to the overlay protein, and resulting bands were visualized using ECL Western blotting.
Test [2] deals with B1. Kind of test: overlay assay on annexin V blotted to nitrocellulose, FIG. 1D.
Method: as §1
In test [3] the target is B1. Kind of test: overlay assay on blotted annexin V, FIG. 1D.
Method: as §1

Method for full-length δ-PKC: as §1

Regarding B1, the binding result with full-length δ-PKC is reported as “binds”.

Regarding B2, the binding result with annexin V [1] is reported as “binds”.

For the molecule B3, the binding result with annexin V [2] is “no binding”.

Consider B4, for which, in the test with annexin V [3], the binding result was “binds”.

Values taken from patent publication US20090081786A1 (published 2009).
